According to US6358505 (dated 2002):

T1: human G-CSF receptor (human, UniProt Q99062 25-836)
T1 sequence (looked up): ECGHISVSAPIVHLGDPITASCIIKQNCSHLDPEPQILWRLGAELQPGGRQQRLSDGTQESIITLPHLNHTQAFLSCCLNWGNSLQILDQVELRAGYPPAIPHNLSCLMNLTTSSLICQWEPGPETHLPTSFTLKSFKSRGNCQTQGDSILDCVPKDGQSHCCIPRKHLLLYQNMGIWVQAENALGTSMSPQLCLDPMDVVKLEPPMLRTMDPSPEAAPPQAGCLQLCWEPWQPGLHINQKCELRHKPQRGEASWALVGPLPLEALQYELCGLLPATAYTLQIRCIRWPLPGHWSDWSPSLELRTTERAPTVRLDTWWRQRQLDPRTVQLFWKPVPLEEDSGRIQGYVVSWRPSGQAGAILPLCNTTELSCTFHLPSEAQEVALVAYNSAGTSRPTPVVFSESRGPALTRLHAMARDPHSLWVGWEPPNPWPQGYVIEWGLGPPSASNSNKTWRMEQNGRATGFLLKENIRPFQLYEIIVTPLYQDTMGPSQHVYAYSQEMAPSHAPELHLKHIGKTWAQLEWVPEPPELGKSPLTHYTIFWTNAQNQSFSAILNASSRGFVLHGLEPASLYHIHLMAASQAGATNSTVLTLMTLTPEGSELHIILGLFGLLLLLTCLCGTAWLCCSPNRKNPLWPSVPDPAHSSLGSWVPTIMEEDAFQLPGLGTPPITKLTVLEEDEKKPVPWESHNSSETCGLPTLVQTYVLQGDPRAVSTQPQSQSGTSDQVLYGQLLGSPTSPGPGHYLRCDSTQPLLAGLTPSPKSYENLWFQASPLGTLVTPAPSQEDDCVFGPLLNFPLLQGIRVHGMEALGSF


Biological target: T1, human G-CSF receptor
Experiment: cell-based or functional assay

Row | Molecule | EC50 (pM), Baf/3-G-CSF cell proliferation assay
1 | G-CSF receptor agonist expressed from pMON25183 (ligand) ATQGAMPAFASAFQRRAGGVLVASHLQSFLEVSYRVLRHLAQPTPLGPASSLPQSFLLKSLEQVRKIQGDGAALQEKLCATYKLCHPEELVLLGHSLGIPWAPLSSCPSQALQLAGCLSQLHSGLFLYQGLLQALEGISPELGPTLDTLQLDVADFATTIWQQMEELGMAPALQP | 58 pM
2 | G-CSF receptor agonist expressed from pMON3450 (ligand) AYKLCHPEELVLLGHSLGIPWAPLSSCPSQALQLAGCLSQLHSGLFLYQGLLQALEGISPELGPTLDTLQLDVADFATTIWQQMEELGMAPALQPTQGAMPAFASAFQRRAGGVLVASHLQSFLEVSYRVLRHLAQPTPLGPASSLPQSFLLKSLEQVRKIQGDGAALQEKLCAT | 121 pM
3 | G-CSF receptor agonist expressed from pMON25182 (ligand) AMAPALQPTQGAMPAFASAFQRRAGGVLVASHLQSFLEVSYRVLRHLAQPTPLGPASSLPQSFLLKSLEQVRKIQGDGAALQEKLCATYKLCHPEELVLLGHSLGIPWAPLSSCPSQALQLAGCLSQLHSGLFLYQGLLQALEGISPELGPTLDTLQLDVADFATTIWQQMEELG | 38 pM
4 | G-CSF receptor agonist expressed from pMON3499 (ligand) LLGHSLGIPWAPLSSCPSQALQLAGCLSQLHSGLFLYQGLLQALEGISPELGPTLDTLQLDVADFATTIWQQMEELGMAPALQPTQGAMPAFASAFQRRAGGVLVASHLQSFLEVSYRVLRHLAQPTPLGPASSLPQSFLLKSLEQVRKIQGDGAALQEKLCATYKLCHPEELV | 137 pM
5 | G-CSF receptor agonist expressed from pMON3455 (ligand) AYKLCHPEELVLLGHSLGIPWAPLSSCPSQALQLAGCLSQLHSGLFLYQGLLQALEGISPELGPTLDTLQLDVADFATTIWQQMEELGMAPALQPTQGAMPAFASAFQRRAGGVLVASHLQSFLEVSYRVLRHLAQPSGGSGGSQSFLLKSLEQVRKIQGDGAALQEKLCAT | 102 pM

Now from value to molecule:

Row | EC50 (pM), Baf/3-G-CSF cell proliferation assay | Molecule
6 | 60 pM | native G-CSF (from UniProt P09919 31-204) (ligand)
7 | 83 pM | G-CSF receptor agonist expressed from pMON25187 (ligand) ATQGAMPAFASAFQRRAGGVLVASHLQSFLEVSYRVLRHLAQPSGGSGGSQSFLLKSLEQVRKIQGDGAALQEKLCATYKLCHPEELVLLGHSLGIPWAPLSSCPSQALQLAGCLSQLHSGLFLYQGLLQALEGISPELGPTLDTLQLDVADFATTIWQQMEELGMAPALQP
8 | 92 pM | G-CSF receptor agonist expressed from pMON25186 (ligand) AMAPALQPTQGAMPAFASAFQRRAGGVLVASHLQSFLEVSYRVLRHLAQPSGGSGGSQSFLLKSLEQVRKIQGDGAALQEKATYKLCHPEELVLLGHSLGIPWAPLSSCPSQALQLAGCLSQLHSGLFLYQGLLQALEGISPELGPTLDTLQLDVADFATTIWQQMEELG
9 | 70 pM | G-CSF receptor agonist expressed from pMON25184 (ligand) ASAFQRRAGGVLVASHLQSFLEVSYRVLRHLAQPTPLGPASSLPQSFLLKSLEQVRKIQGDGAALQEKLCATYKLCHPEELVLLGHSLGIPWAPLSSCPSQALQLAGCLSQLHSGLFLYQGLLQALEGISPELGPTLDTLQLDVADFATTIWQQMEELGMAPALQPTQGAMPAFA
10 | 41 pM | G-CSF receptor agonist expressed from pMON25188 (ligand) ASAFQRRAGGVLVASHLQSFLEVSYRVLRHLAQPSGGSGGSQSFLLKSLEQVRKIQGDGAALQEKLCATYKLCHPEELVLLGHSLGIPWAPLSSCPSQALQLAGCLSQLHSGLFLYQGLLQALEGISPELGPTLDTLQLDVADFATTIWQQMEELGMAPALQPTQGAMPAFA
